According to patent publication US20230056252A1 (Gilead, published 2023):
Residue numbers refer to the chain shown, from its start.

B1: huSP34.3.4 Fab-HF (Fab, V domains shown)
VH: EVQLVESGGGLVQPGGSLRLSCAASGFTFNTYAMNWVRQAPGKGLEWVGRIRSKYNNYATYYADSVKGRFTISRDDSKNSLYLQMNSLRTEDTAVYYCVRHGNFGHSYVSWFAYWGQGTLVTVSS
VL: QAVVTQEPSLTVSPGGTVTLTCGSSTGAVTTSHYANWVQQKPGQAPRGLIGGTSKRAPWTPARFSGSLLGGKAALTLSGAQPEDEAEYYCALWYSALWVFGGGTKLTVL
notes: also called HC3+LC4
B2: huSP34.3.5 Fab-HF (Fab, V domains shown)
VH: B1 VH
VL: B1 VL with S32G, K55N, L97R
notes: also called HC3+LC5
B3: huSP34.3.6 Fab-HF (Fab, V domains shown)
VH: B1 VH
VL: B1 VL with E7P, S32G, K55N, W59G, T60V, L69S, L77I, L97R
notes: also called HC3+LC6
B4: huSP34.4.1 Fab-HF (Fab, V domains shown)
VH: B1 VH with N30S, D64A, Y114V
VL: B1 VL with G23R, H33N, S54N, L69I, G71D, A96N
notes: also called HC4+LC1
B5: huSP34.4.2 Fab-HF (Fab, V domains shown)
VH: B1 VH with N30S, D64A, Y114V
VL: B1 VL with H33N, K55N, A96N
notes: also called HC4+LC2
B6: huSP34.4.4 Fab-HF (Fab, V domains shown)
VH: B1 VH with N30S, D64A, Y114V
VL: B1 VL
notes: also called HC4+LC4
B7: huSP34.4.5 Fab-HF (Fab, V domains shown)
VH: B1 VH with N30S, D64A, Y114V
VL: B1 VL with S32G, K55N, L97R
notes: also called HC4+LC5
B8: huSP34.4.6 Fab-HF (Fab, V domains shown)
VH: B1 VH with N30S, D64A, Y114V
VL: B1 VL with E7P, S32G, K55N, W59G, T60V, L69S, L77I, L97R
notes: also called HC4+LC6
B9: huSP34.5.1 Fab-HF (Fab, V domains shown)
VH: B1 VH with N30S, D76N, S80T, T90A, Y114V
VL: B1 VL with G23R, H33N, S54N, L69I, G71D, A96N
notes: also called HC5+LC1
B10: huSP34.5.2 Fab-HF (Fab, V domains shown)
VH: B1 VH with N30S, D76N, S80T, T90A, Y114V
VL: B1 VL with H33N, K55N, A96N
notes: also called HC5+LC2
B11: huSP34.5.4 Fab-HF (Fab, V domains shown)
VH: B1 VH with N30S, D76N, S80T, T90A, Y114V
VL: B1 VL
notes: also called HC5+LC4
B12: huSP34.5.5 Fab-HF (Fab, V domains shown)
VH: B1 VH with N30S, D76N, S80T, T90A, Y114V
VL: B1 VL with S32G, K55N, L97R
notes: also called HC5+LC5
B13: huSP34.6.1 Fab-HF (Fab, V domains shown)
VH: B1 VH with N30S, D76N, S80T, T90A, V95M, H106N, Y114V
VL: B1 VL with G23R, H33N, S54N, L69I, G71D, A96N
notes: also called HC6+LC1
B14: huSP34.6.2 Fab-HF (Fab, V domains shown)
VH: B1 VH with N30S, D76N, S80T, T90A, V95M, H106N, Y114V
VL: B1 VL with H33N, K55N, A96N
notes: also called HC6+LC2
B15: huSP34.6.4 Fab-HF (Fab, V domains shown)
VH: B1 VH with N30S, D76N, S80T, T90A, V95M, H106N, Y114V
VL: B1 VL
notes: also called HC6+LC4
B16: huSP34.6.5 Fab-HF (Fab, V domains shown)
VH: B1 VH with N30S, D76N, S80T, T90A, V95M, H106N, Y114V
VL: B1 VL with S32G, K55N, L97R
notes: also called HC6+LC5
B17: huSP34.7.1 Fab-HF (Fab, V domains shown)
VH: B1 VH with N30S, T31D, I51T, D64A, R89K, H106N, Y114V
VL: B1 VL with G23R, H33N, S54N, L69I, G71D, A96N
notes: also called HC7+LC1
B18: huSP34.7.2 Fab-HF (Fab, V domains shown)
VH: B1 VH with N30S, T31D, I51T, D64A, R89K, H106N, Y114V
VL: B1 VL with H33N, K55N, A96N
notes: also called HC7+LC2
B19: huSP34.7.4 Fab-HF (Fab, V domains shown)
VH: B1 VH with N30S, T31D, I51T, D64A, R89K, H106N, Y114V
VL: B1 VL
notes: also called HC7+LC4
B20: huSP34.7.5 Fab-HF (Fab, V domains shown)
VH: B1 VH with N30S, T31D, I51T, D64A, R89K, H106N, Y114V
VL: B1 VL with S32G, K55N, L97R
notes: also called HC7+LC5
B21: huSP34.8.1 Fab-HF (Fab, V domains shown)
VH: B1 VH with N30S, T31D, I51T, D64A, R89K, Y114V
VL: B1 VL with G23R, H33N, S54N, L69I, G71D, A96N
notes: also called HC8+LC1
B22: huSP34.8.2 Fab-HF (Fab, V domains shown)
VH: B1 VH with N30S, T31D, I51T, D64A, R89K, Y114V
VL: B1 VL with H33N, K55N, A96N
notes: also called HC8+LC2
B23: huSP34.8.4 Fab-HF (Fab, V domains shown)
VH: B1 VH with N30S, T31D, I51T, D64A, R89K, Y114V
VL: B1 VL
notes: also called HC8+LC4
B24: huSP34.8.5 Fab-HF (Fab, V domains shown)
VH: B1 VH with N30S, T31D, I51T, D64A, R89K, Y114V
VL: B1 VL with S32G, K55N, L97R
notes: also called HC8+LC5
B25: huSP34.8.6 Fab-HF (Fab, V domains shown)
VH: B1 VH with N30S, T31D, I51T, D64A, R89K, Y114V
VL: B1 VL with E7P, S32G, K55N, W59G, T60V, L69S, L77I, L97R
notes: also called HC8+LC6
B26: huSP34.9.1 Fab-HF (Fab, V domains shown)
VH: B1 VH with N30S, T31D, I51T, N57S, D64A, R89K, H106N, Y114V
VL: B1 VL with G23R, H33N, S54N, L69I, G71D, A96N
notes: also called HC9+LC1

Biological target: T1, biotinylated CD3 epsilon:delta heterodimer protein (Amsbio AMS.CDD-H52WO) (Homo sapiens (Human), UniProt P07766 23-126; P04234 22-105)
T1 construct: also called CD3 heterodimer
Assay: BLI (Octet), CD3 on SA sensor, Fab analyte;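 also: biolayer interferometry with biotinylated CD3 epsilon:delta captured on streptavidin sensors, Fab analyte at several concentrations up to 300 nM, 100 s association then 300 s dissociation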

Binder | Kd [nM] | koff [s⁻¹] | kon [M⁻¹ s⁻¹]
B1 | 85.8 | 0.0246 | 287000
B2 | 68.5 | 0.0177 | 260000
B3 | 18.9 | 0.00482 | 266000
B4 | 19.8 | 0.00723 | 396000
B5 | 45.2 | 0.0144 | 321000
B6 | 159 | 0.0436 | 274000
B7 | 211 | 0.0506 | 241000
B8 | 22.7 | 0.0101 | 451000
B9 | 123 | 0.0365 | 311000
B10 | 1200 | 0.109 | 90800
B11 | 497 | 0.213 | 429000
B12 | 666 | 0.185 | 277000
B13 | 53.9 | 0.0199 | 478000
B14 | 351 | 0.0499 | 144000
B15 | 570 | 0.202 | 359000
B16 | 353 | 0.0963 | 273000
B17 | 372 | 0.0855 | 235000
B18 | 498 | 0.155 | 318000
B19 | 4180 | 0.424 | 265000
B20 | 1460 | 0.848 | 307000
B21 | 443 | 0.0823 | 186000
B22 | 3440 | 0.0982 | 172000
B23 | 305 | 0.163 | 561000
B24 | 234 | 0.219 | 958000
B25 | 375 | 0.138 | 367000
B26 | 417 | 0.0779 | 187000
